Publication PMC8633023, “Crystal structures of phosphatidyl serine synthase PSS reveal the catalytic mechanism of CDP-DAG alcohol O-phosphatidyl transferases” (Nature Communications, 2021)

What was measured:
[1] = molecular target: T1, MjPSS (phosphatidyl serine synthase, PS synthase) (Methanocaldococcus jannaschii, UniProt Q58609); assay: X-ray crystal structure (SeMet protein, […] Å); MST also shows binding; conditions: open state with CDP-DAG, Ca2+, Mg2+; Ser1 catalytic site, Ser2 judged artefact; in 7POW covalent to CDP-DAG in one protomer
T1 construct: gene pssA; tag used for MST labelling), E. coli C41(DE3) membranes, solubilised in decyl maltoside; dimer

[2] = molecular target: T1, MjPSS (phosphatidyl serine synthase, PS synthase); assay: activity measured as a function of citrate; crystal structure ([…] Å); assay type: biochemical; conditions: reversible; reversed by more serine, blocks or competes with serine; structural site near Asn109, Lys111, Lys157, called non-specific by authors
purified protein = substrate: N[C@@H](CO)C(=O)O; assay: purified protein; conditions: co-substrate CDP-DAG, co-purified Mg2+ and Ca2+, 50 mM Tris-HCl pH 7.0, 50 mM NaCl, 0.2% DM, temperature of this assay not given
[3] = molecular target: the molecule itself; assay: crystal structure; crystals grown in meso (lipidic cubic / sponge phase, monoolein with 2% (w/w) CDP-DAG), 292 K; two molecules in the asymmetric unit

Molecule: N[C@@H](CO)C(=O)O [L-serine]
- X-ray crystal structure (SeMet protein, 1.85 Å); MST also shows binding [1]: 7B1L for the open state with CDP-DAG and two serines

Molecule: O=C(O)CC(O)(CC(=O)O)C(=O)O [citrate]
- inhibition [2]: binding of citrate reversibly inhibits MjPSS, and that the inhibition is reversed by addition of more serine

B1: MjPSS (phosphatidyl serine synthase, PS synthase) (Methanocaldococcus jannaschii DSM 2661) (protein)
chain: MFSIRKIITISDYVTMLNIITGLLAILLNSFSLIYLSIIFDSLDGYVARKTGTVSDFGAELDSISDVVSFGVAPAYLLYNNFESNLALISAIIFCLCGALRLARFGILNVKGFIGLPIPAGALLLVGFCQLINSYLINSILAILIGLLMISDIKYPKYPNKIFIYIFAVSLCLAIVGIPHFALMLCLIYAIYGIIKYIRGD
- Km (purified protein): 0.46 ± 0.12 mM
- kcat (purified protein): 0.123 ± 0.007 s⁻¹

B2: phosphatidyl serine synthase from Methanocaldococcus jannaschii (native MjPSS) (enzyme)
chain: B1 chain
notes: phosphatidyl serine synthase (CDP-DAG alcohol O-phosphatidyl transferase, EC 2.7.8.8) of Methanocaldococcus jannaschii; the vector pSKB2LNB adds an N-terminal His6-Tag and a PreScission site; 400 protein residues are modelled for the two protomers; also called PS synthase; wild-type MjPSS; source: E. coli C41-(DE3), purified from membranes (DM-solubilised, Co2+ chelating Sepharose, size-exclusion …)
- stoichiometry N [3]: 2

B3: Seleno-methionine (SeMet) MjPSS (enzyme, Methanocaldococcus jannaschii)
chain: B1 chain
modifications: selenomethionine in place of methionine
notes: phosphatidyl serine synthase (CDP-DAG alcohol O-phosphatidyl transferase, EC 2.7.8.8) of Methanocaldococcus jannaschii; same construct as m1, SeMet substituted; Same construct as m1; also called SeMet-labelled protein; SeMet substituted protein; source: E. coli, M9 minimal medium with SeMet, IPTG-induced; purified as native MjPSS (final SEC on Superdex 200 Increase)
- stoichiometry N [3]: 2
